Positions of bridges follow the written chain, without caps; N, C: chain ends. Non-standard residues stand in square brackets, D forms with d.
molecular target: T1, Biotinylated Avi-tagged WT Gαs (residues 7-380 of the short isoform of human Gαs), GDP-bound (human, UniProt P63092 7-394, biotin on the Avi tag (BirA)); experiment: TR-FRET competition: biotinylated GDP-bound Gαs WT against His-Gβγ(C68S)
T1 construct: Loaded with GDP; Same polypeptide as m7, other nucleotide state; also called biotinylated Gαs WT
Description: (§1) Biotinylated avi-Gαs (6-end, WT) and avi-Gαi (FL, WT) were diluted to 32 nM (8×) using assay buffer (1× PBS 7.4, 2 mM DTT, 0.1% BSA, 2 mM MgCl₂, 0.05% Tween plus 0.5 mM GDP), followed by mixing with a same volume of 8× streptavidin XL665 stock (32 nM in the assay buffer). 8× His-Gβ/γ (C68S) stock (16 nM) and 8× anti-6His-Tb cryptate stock (0.4 μg/mL) were added into the Gα/XL665 mixtures. Finally, 2× stocks of cyclic peptides were added with the protein mixtures. After incubation at room temperature for 2 hour at room temperature. […] FRET Signal was calculated as the ratio of [Read B]/[Read A].

T1 sequence (P63092 other isoform, or with tags, fused parts or gaps limits assumed): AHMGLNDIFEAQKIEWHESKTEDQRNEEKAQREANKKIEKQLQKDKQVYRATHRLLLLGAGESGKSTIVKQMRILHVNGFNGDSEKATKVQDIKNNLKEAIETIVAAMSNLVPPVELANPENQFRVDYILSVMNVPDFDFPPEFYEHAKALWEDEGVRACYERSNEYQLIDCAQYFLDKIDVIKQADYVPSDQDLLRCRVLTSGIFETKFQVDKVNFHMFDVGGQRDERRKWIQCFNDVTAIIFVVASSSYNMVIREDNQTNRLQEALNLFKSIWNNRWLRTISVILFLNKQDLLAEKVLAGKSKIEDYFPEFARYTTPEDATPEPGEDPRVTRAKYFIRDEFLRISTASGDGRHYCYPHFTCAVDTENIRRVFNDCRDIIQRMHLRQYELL

| Binder | IC50 [nM] |
| --- | --- |
| {CH2CO}-[dY]LITFRQWALNLPCG-NH2 (thioether N-14; SMILES CC[C@H](C)[C@@H]1NC(=O)[C@H](CC(C)C)NC(=O)[C@@H](Cc2ccc(O)cc2)NC(=O)CSC[C@@H](C(=O)NCC(N)=O)NC(=O)[C@@H]2CCCN2C(=O)[C@H](CC(C)C)NC(=O)[C@H](CC(N)=O)NC(=O)[C@H](CC(C)C)NC(=O)[C@H](C)NC(=O)[C@H](Cc2c[nH]c3ccccc23)NC(=O)[C@H](CCC(N)=O)NC(=O)[C@H](CCCNC(=N)N)NC(=O)[C@H](Cc2ccccc2)NC(=O)[C@H]([C@@H](C)O)NC1=O, Single substitution F10L of GD20; also called cell permeable GD20 analog F10L) [GD20-F10L] | 14 |

molecular target: T2, Biotinylated His/Avi-tagged Gαs used in the RaPID selection, GppNHp-bound (human, UniProt P63092 7-394, biotin on the Avi tag (BirA co-expressed)); experiment: RaPID comparison selection: peptide-mRNA-cDNA complexes on Gαs-immobilized streptavidin beads, qPCR and sequencing
T2 construct: Immobilized on streptavidin magnetic beads
T2 sequence (P63092 other isoform, or with tags, fused parts or gaps limits assumed): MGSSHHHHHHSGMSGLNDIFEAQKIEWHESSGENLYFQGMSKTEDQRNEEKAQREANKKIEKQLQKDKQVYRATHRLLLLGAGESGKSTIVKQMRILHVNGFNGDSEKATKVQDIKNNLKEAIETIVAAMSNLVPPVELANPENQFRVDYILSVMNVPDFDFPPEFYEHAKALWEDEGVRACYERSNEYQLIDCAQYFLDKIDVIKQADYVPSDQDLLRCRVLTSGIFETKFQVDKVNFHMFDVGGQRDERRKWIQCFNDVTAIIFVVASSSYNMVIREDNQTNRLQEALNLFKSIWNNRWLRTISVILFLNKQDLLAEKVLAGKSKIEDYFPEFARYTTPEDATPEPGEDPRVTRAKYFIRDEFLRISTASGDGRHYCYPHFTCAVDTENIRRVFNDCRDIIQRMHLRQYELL

| Binder | fold selectivity for GppNHp-bound over GDP-bound Gαs [fold] |
| --- | --- |
| {CH2CO}-[dY]SWPNQFDWFIELCG-NH2 (thioether N-14; SMILES CC[C@H](C)[C@@H]1NC(=O)[C@H](Cc2ccccc2)NC(=O)[C@H](Cc2c[nH]c3ccccc23)NC(=O)[C@H](CC(=O)O)NC(=O)[C@H](Cc2ccccc2)NC(=O)[C@H](CCC(N)=O)NC(=O)[C@H](CC(N)=O)NC(=O)[C@@H]2CCCN2C(=O)[C@H](Cc2c[nH]c3ccccc23)NC(=O)[C@H](CO)NC(=O)[C@@H](Cc2ccc(O)cc2)NC(=O)CSC[C@@H](C(=O)NCC(N)=O)NC(=O)[C@H](CC(C)C)NC(=O)[C@H](CCC(=O)O)NC1=O) [GN7] | > 100 |
| {CH2CO}-[dY]QYTYPYLVIDWTCG-NH2 (thioether N-14; SMILES CC[C@H](C)[C@@H]1NC(=O)[C@H](C(C)C)NC(=O)[C@H](CC(C)C)NC(=O)[C@H](Cc2ccc(O)cc2)NC(=O)[C@@H]2CCCN2C(=O)[C@H](Cc2ccc(O)cc2)NC(=O)[C@H]([C@@H](C)O)NC(=O)[C@H](Cc2ccc(O)cc2)NC(=O)[C@H](CCC(N)=O)NC(=O)[C@@H](Cc2ccc(O)cc2)NC(=O)CSC[C@@H](C(=O)NCC(N)=O)NC(=O)[C@H]([C@@H](C)O)NC(=O)[C@H](Cc2c[nH]c3ccccc23)NC(=O)[C@H](CC(=O)O)NC1=O) [GN8] | > 100 |
| {CH2CO}-[dY]KYWDFDNFQELYCG-NH2 (thioether N-14; SMILES CC(C)C[C@@H]1NC(=O)[C@H](CCC(=O)O)NC(=O)[C@H](CCC(N)=O)NC(=O)[C@H](Cc2ccccc2)NC(=O)[C@H](CC(N)=O)NC(=O)[C@H](CC(=O)O)NC(=O)[C@H](Cc2ccccc2)NC(=O)[C@H](CC(=O)O)NC(=O)[C@H](Cc2c[nH]c3ccccc23)NC(=O)[C@H](Cc2ccc(O)cc2)NC(=O)[C@H](CCCCN)NC(=O)[C@@H](Cc2ccc(O)cc2)NC(=O)CSC[C@@H](C(=O)NCC(N)=O)NC(=O)[C@H](Cc2ccc(O)cc2)NC1=O) [GN15] | > 100 |
| {CH2CO}-[dY]NWSNQFDWFLDLCG-NH2 (thioether N-14; SMILES CC(C)C[C@@H]1NC(=O)[C@H](CC(=O)O)NC(=O)[C@H](CC(C)C)NC(=O)[C@H](Cc2ccccc2)NC(=O)[C@H](Cc2c[nH]c3ccccc23)NC(=O)[C@H](CC(=O)O)NC(=O)[C@H](Cc2ccccc2)NC(=O)[C@H](CCC(N)=O)NC(=O)[C@H](CC(N)=O)NC(=O)[C@H](CO)NC(=O)[C@H](Cc2c[nH]c3ccccc23)NC(=O)[C@H](CC(N)=O)NC(=O)[C@@H](Cc2ccc(O)cc2)NC(=O)CSC[C@@H](C(=O)NCC(N)=O)NC1=O) [GN3] | > 100 |
| {CH2CO}-[dY]LTNWGVYWDQYWCG-NH2 (thioether N-14; SMILES CC(C)C[C@@H]1NC(=O)[C@@H](Cc2ccc(O)cc2)NC(=O)CSC[C@@H](C(=O)NCC(N)=O)NC(=O)[C@H](Cc2c[nH]c3ccccc23)NC(=O)[C@H](Cc2ccc(O)cc2)NC(=O)[C@H](CCC(N)=O)NC(=O)[C@H](CC(=O)O)NC(=O)[C@H](Cc2c[nH]c3ccccc23)NC(=O)[C@H](Cc2ccc(O)cc2)NC(=O)[C@H](C(C)C)NC(=O)CNC(=O)[C@H](Cc2c[nH]c3ccccc23)NC(=O)[C@H](CC(N)=O)NC(=O)[C@H]([C@@H](C)O)NC1=O) [GN11] | > 100 |
| Ac-[dY]CFYEVWPYYLPCG-NH2 (thioether (positions not given here); also: thioether partner Cys2 or Cys13 not settled) [GN6] | > 100 |
| {CH2CO}-[dY]QFIEVWPFYLPCG-NH2 (thioether N-13; SMILES CC[C@H](C)[C@@H]1NC(=O)[C@H](Cc2ccccc2)NC(=O)[C@H](CCC(N)=O)NC(=O)[C@@H](Cc2ccc(O)cc2)NC(=O)CSC[C@@H](C(=O)NCC(N)=O)NC(=O)[C@@H]2CCCN2C(=O)[C@H](CC(C)C)NC(=O)[C@H](Cc2ccc(O)cc2)NC(=O)[C@H](Cc2ccccc2)NC(=O)[C@@H]2CCCN2C(=O)[C@H](Cc2c[nH]c3ccccc23)NC(=O)[C@H](C(C)C)NC(=O)[C@H](CCC(=O)O)NC1=O, the number is its rank in the selection) [GN1] | > 100 |

molecular target: T1, Biotinylated Avi-tagged WT Gαs …; experiment: TR-FRET competition: biotinylated Gαs or Gαi (GDP) against His-Gβγ(C68S)
Description: as §1

| Binder | fold selectivity for Gαs over Gαi [fold] |
| --- | --- |
| {CH2CO}-[dY]LITFRQWALNLPCG-NH2 (thioether N-14; SMILES CC[C@H](C)[C@@H]1NC(=O)[C@H](CC(C)C)NC(=O)[C@@H](Cc2ccc(O)cc2)NC(=O)CSC[C@@H](C(=O)NCC(N)=O)NC(=O)[C@@H]2CCCN2C(=O)[C@H](CC(C)C)NC(=O)[C@H](CC(N)=O)NC(=O)[C@H](CC(C)C)NC(=O)[C@H](C)NC(=O)[C@H](Cc2c[nH]c3ccccc23)NC(=O)[C@H](CCC(N)=O)NC(=O)[C@H](CCCNC(=N)N)NC(=O)[C@H](Cc2ccccc2)NC(=O)[C@H]([C@@H](C)O)NC1=O, Single substitution F10L of GD20; also called cell permeable GD20 analog F10L) [GD20-F10L] | 100 |

Reference: patent publication US20240336657A1, “G-ALPHA-S PEPTIDE INHIBITORS AND USES THEREOF” (The Regents of the University of California, priority 2021, published 2024)
